The values that follow come from patent US20200225234A1 (ONCOTAG DIAGNOSTICS, published 2020).

Assay [1] deals with T1, His-AIMP1 (UniProt Q12904 1-312, limits assumed).
T1 construct: not shown: His tag
T1 sequence (looked up): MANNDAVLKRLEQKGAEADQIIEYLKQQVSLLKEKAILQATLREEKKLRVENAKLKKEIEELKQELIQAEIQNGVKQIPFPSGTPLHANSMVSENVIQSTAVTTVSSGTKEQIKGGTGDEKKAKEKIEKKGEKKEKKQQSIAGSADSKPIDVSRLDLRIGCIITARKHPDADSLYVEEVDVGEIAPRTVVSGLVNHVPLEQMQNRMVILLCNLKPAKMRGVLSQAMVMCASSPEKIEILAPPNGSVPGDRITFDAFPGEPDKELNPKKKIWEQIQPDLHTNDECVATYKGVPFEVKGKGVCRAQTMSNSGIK
Put plainly: ELISA, coated His-AIMP1, absorbance at 450 nm. The procedure:
(§1) On a 96-well plate (Corning 3690 flat bottom, 96-well half-area plates), MRS proteins (His-MRS, MRS full) and other ARS proteins (DX2 tag free, 34S-DX2, 34S-AIMP2, His-CRS, His-AIMP1, His-GRS, His-WRS, His-KRS) were each coated at a concentration of 1 μg/ml. 8A12 antibody was added at a concentration of 500 ng/ml to the 96-well plate coated with coated with each of the ARS proteins, followed by incubation for 1 hour. Thereafter, HRP-conjugated anti-mouse IgG secondary antibody was added, followed by incubation for 1 hour, and the absorbance at 450 nm was measured by ELISA. As a substrate, 3,3′,5,5′-tetramethylbenzidine (TMB) was used.

In assay [2] the target is T2, aminoacyl-tRNA synthetase complex-interacting multifunctional protein 3 (AIMP3) (Homo sapiens (Human), UniProt O43324 1-174, limits assumed).
T2 construct: The construct of the AIMP3-alone protein is not described; also called AIMP3 protein
T2 sequence: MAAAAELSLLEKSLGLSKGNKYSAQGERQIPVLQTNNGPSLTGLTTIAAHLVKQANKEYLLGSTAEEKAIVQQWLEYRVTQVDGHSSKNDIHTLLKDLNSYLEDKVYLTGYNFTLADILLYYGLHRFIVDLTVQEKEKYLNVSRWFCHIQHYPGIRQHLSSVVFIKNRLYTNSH
Put plainly: SPR, AIMP3 protein on a CM5 chip, 8A12 antibody as analyte at 0.20 to 200 nM. On the procedure: (§2) To investigate MRS-specific affinity of the 8A12 antibody, a surface plasmon resonance (SPR) test was performed using MRS-AIMP3 co-purified protein (hereinafter, MRS+AIMP3 protein) and AIMP3 protein. MRS+AIMP3 or AIMP3 protein was coated on a CM5 chip and the 8A12 antibody was allowed to flow down, thereby measuring the degree of binding response of the protein. An analyte sample or buffer was injected at a flow rate of 30 μl/min for 8 minutes, and washed for 20 minutes.
A general note: Surface plasmon resonance follows binding to a sensor surface in real time, without labels.

The target of assay [3] is T3, His-CRS (UniProt P49589 1-748).
T3 construct: not shown: His tag
T3 sequence (looked up): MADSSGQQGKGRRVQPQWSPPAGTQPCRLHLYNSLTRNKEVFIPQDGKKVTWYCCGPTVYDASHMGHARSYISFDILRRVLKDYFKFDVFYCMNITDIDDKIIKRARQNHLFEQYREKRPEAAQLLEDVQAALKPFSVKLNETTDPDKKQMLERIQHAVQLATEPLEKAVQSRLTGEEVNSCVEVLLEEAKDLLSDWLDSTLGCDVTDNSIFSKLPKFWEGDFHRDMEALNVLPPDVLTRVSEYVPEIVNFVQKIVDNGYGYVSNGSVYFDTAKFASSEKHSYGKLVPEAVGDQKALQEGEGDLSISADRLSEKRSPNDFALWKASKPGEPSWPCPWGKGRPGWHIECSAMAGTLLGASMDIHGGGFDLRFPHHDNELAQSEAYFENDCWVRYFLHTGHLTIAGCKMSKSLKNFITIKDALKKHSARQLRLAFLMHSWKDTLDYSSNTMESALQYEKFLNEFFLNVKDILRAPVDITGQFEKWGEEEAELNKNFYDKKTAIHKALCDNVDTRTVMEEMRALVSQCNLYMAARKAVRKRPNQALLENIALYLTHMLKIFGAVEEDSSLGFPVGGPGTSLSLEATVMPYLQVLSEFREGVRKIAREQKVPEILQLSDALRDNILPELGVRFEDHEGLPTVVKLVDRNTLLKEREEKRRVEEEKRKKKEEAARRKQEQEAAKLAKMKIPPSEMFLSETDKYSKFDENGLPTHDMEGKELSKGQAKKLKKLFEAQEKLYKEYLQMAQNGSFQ
In words: ELISA, coated His-CRS, absorbance at 450 nm. On the procedure: as §1
On the technique in general: In an ELISA, binding on a coated surface is turned into a signal by an enzyme label.

Assay [4] addresses T4, MRS-AIMP3 co-purified protein (human, UniProt P56192 1-900; O43324 1-174, limits assumed).
T4 construct: Complex of MRS and AIMP3, co-expressed in E. coli BL21DE3 and co-purified; also called MRS+AIMP3 protein
T4 sequence 1: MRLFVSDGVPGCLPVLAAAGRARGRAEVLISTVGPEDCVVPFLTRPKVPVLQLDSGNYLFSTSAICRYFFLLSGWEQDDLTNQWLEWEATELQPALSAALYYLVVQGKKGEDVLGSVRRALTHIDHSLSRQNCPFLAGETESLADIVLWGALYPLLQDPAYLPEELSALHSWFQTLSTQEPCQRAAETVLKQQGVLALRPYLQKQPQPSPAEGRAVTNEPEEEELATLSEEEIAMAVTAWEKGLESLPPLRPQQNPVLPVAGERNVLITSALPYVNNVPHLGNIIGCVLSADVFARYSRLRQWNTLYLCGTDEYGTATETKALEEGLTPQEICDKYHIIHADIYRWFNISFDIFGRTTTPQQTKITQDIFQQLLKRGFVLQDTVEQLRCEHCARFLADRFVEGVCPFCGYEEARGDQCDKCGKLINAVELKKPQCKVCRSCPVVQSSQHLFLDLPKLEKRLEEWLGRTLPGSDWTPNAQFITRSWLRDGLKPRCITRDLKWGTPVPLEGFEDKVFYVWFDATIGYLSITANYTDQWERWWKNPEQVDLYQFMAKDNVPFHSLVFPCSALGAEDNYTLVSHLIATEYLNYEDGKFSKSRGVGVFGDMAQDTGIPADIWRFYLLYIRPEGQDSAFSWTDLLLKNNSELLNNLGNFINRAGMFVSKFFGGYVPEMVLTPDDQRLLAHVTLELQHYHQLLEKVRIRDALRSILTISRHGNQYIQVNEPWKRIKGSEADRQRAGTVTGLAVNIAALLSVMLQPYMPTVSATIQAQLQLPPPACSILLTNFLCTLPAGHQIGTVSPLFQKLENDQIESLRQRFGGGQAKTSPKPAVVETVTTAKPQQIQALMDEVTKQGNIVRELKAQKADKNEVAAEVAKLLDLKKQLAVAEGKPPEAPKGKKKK
T4 sequence 2: T2 sequence
In words: SPR, MRS+AIMP3 protein on a CM5 chip, 8A12 antibody as analyte at 0.39 to 200 nM. On the procedure:
as §2

Assay [5] has as its target T5, His-WRS (UniProt P23381 1-471, limits assumed).
T5 construct: not shown: His tag
T5 sequence (looked up): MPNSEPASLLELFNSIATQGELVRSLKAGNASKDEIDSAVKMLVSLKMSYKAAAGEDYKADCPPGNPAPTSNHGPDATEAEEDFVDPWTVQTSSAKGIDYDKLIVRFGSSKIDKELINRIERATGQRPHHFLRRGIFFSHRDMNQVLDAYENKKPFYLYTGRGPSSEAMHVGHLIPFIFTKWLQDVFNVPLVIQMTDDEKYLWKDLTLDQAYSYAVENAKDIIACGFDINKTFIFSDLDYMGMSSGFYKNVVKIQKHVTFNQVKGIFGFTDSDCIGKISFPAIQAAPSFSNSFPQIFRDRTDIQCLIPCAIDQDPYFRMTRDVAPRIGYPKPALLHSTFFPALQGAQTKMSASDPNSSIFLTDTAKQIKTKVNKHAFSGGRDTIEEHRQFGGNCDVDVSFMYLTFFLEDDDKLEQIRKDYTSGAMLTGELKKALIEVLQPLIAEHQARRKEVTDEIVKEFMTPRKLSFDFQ
In words: ELISA, coated His-WRS, absorbance at 450 nm. The procedure:
as §1

The target in assay [6] is T6, His-GRS (UniProt P41250 55-739).
T6 construct: not shown: His tag
T6 sequence (looked up): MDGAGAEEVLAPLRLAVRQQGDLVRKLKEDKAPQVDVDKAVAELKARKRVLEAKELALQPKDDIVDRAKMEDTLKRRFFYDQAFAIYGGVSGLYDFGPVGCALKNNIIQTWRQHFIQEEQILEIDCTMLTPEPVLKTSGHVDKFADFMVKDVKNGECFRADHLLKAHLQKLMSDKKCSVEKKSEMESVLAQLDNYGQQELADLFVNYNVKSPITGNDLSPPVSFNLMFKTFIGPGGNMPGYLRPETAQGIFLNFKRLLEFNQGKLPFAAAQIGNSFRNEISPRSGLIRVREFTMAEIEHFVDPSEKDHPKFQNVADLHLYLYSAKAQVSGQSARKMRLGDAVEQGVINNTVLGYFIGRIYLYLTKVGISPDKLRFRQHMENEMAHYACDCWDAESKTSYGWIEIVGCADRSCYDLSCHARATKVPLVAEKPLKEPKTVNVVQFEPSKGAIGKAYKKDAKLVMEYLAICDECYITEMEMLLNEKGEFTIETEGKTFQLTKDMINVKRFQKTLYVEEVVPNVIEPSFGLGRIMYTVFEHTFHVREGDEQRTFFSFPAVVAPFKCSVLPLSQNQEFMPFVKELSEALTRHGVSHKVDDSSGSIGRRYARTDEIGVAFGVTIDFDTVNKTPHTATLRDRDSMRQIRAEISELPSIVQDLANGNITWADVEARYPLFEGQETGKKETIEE
Put plainly: ELISA, coated His-GRS, absorbance at 450 nm. The procedure:
as §1

For assay [7], the target named is T4, MRS-AIMP3 co-purified protein. Put plainly: SPR, MRS+AIMP3 protein coated on CM5 chip, antibody as analyte; MRS+AIMP3 co-purified protein on the CM5 chip, 8A12 antibody as analyte. On the procedure: as §2
For assay [8], the target named is T7, 34S-AIMP2 (UniProt Q13155 1-320).
T7 construct: The meaning of 34S is unknown
T7 sequence (looked up): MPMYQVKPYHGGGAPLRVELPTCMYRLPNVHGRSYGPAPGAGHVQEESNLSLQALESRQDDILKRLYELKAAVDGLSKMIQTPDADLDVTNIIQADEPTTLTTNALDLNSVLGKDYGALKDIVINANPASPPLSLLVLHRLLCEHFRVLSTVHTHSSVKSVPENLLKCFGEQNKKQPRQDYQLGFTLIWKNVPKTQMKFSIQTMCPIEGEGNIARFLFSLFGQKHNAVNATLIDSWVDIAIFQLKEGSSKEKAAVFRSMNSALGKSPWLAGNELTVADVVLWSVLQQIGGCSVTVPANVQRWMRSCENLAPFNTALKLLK
In words: ELISA, coated 34S-AIMP2, absorbance at 450 nm. The procedure:
as §1

In assay [9] the target is T8, MRS fragment peptide of aa 851-880 (human).
T8 peptide: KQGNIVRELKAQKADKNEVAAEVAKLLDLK
Put plainly: ELISA, peptide coated at 300 ng/well, antibody at 10 nM. The procedure:
The 8A12 antibody as a primary antibody was diluted to 10 nM (1× PBST-Tween 0.05%), and HRP-conjugated Goat anti-mouse IgG (Thermo) as a secondary antibody was diluted at 1:10000 (1×PBST-Tween0.05%), and the absorbance was measured at 450 nm.

The target of assay [10] is T9, His-KRS (UniProt Q15046 1-597).
T9 construct: not shown: His tag
In words: ELISA, coated His-KRS, absorbance at 450 nm. The procedure:
as §1

T9 sequence (Q15046 whole entry): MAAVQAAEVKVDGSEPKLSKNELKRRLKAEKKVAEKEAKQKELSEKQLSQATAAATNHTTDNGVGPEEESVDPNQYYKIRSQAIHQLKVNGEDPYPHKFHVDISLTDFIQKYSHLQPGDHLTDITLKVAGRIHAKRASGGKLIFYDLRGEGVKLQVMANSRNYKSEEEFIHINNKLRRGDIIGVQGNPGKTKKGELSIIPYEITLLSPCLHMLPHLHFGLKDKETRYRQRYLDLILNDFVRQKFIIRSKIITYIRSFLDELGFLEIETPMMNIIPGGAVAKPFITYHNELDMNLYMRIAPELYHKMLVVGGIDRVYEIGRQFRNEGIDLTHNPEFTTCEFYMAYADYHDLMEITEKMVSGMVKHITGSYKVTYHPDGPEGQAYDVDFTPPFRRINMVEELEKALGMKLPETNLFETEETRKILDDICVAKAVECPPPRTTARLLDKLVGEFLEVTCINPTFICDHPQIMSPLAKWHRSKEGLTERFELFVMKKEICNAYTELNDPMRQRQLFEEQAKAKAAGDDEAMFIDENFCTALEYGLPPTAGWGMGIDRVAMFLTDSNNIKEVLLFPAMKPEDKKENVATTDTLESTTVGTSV

B1: 8A12 antibody (whole 8A12 IgG antibody) (antibody, V domains shown)
VH: DVKLQESGPGLVKPSQSLSLTCTVTGYSITSEYAWTWIRQFPGNKLEWMGYINYNGNTNLNPSLKSRISIIRDTSKNQFFLQLNSVTTEDTATYYCARSLWPRGWFAYWGQGTLVTVSA
VL: DIQMTQSPSSMYASLGERVTITCKASQDINSYLSWFQQKPGKSPKTLMYRANRLVDGVPSRFSGSGSGQDYSLTISSLEYEDMGIYYCLQYDEFPRTFGGGTKLEIKA
notes: Mouse monoclonal antibody from hybridoma 8A12; It was also made recombinantly in 293F cells with mouse IgG2a heavy and mouse kappa light chain vectors; also called MRS antibody; 8A12 clone expression antibody
In the case of B1, the binding result in assay [1] is given as “no binding”; in assay [2] it was “no binding (tested: 200 nM)”; in [3] it was “no binding”; in [5], “no binding”; in assay [6], “no binding”; in [8], “no binding”. Further, the binding result in [9] is listed as “binds”; in assay [10], “no binding”. Moreover, the koff – broadly, a measure of how fast the partners let go of each other – in assay [4] came out at 0.000213 s⁻¹. For the same molecule, in assay [4], the kon (commonly the rate constant with which the complex forms) turned out to be 137000 M⁻¹ s⁻¹. For the same molecule, in assay [7], the Kd (usually the equilibrium constant for the complex coming apart) was found to be 1.56 nM.
